± gives the standard deviation.
Experiment: protein stability index of a GFP-peptide fusion (GPS, HEK-293T) (PSI 1-6); higher = more stable
[1] = treatment: DMSO, c terminus: a fixed tail appended
[2] = treatment: MLN4924 1 uM, 8 h, c terminus: a fixed tail appended
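Also: 24-mer peptide tiles fused after GFP, lentivirally expressed, FACS-sorted into six equal bins by GFP/DsRed ratio, decoded by Illumina sequencing, PSI is the read-weighted mean bin number.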

VAREYYSEADASHCIQQILEAVLH [CAMK2B]
protein stability index [1]: 2.29 ± 0.3 | protein stability index [2]: 2.87 ± 0.49

SHLLVAEPEKIYAMPDPTVPDSDI [ESRRG]
protein stability index [1]: 5.04 ± 0.081 | protein stability index [2]: 5.08 ± 0.13

TTCSTPLLNSPPSFVCWSRGFMEM [AUP1]
protein stability index [1]: 2.21 ± 0.26 | protein stability index [2]: 2.33 ± 0.31

PTEGAGSPAKASQASKLRASKEEK [FBF1]
protein stability index [1]: 5.41 ± 0.21 | protein stability index [2]: 5.43 ± 0.28

KQKGSEENLDEAREQKEKSPPDQP [ADD1]
protein stability index [1]: 5.68 ± 0.26 | protein stability index [2]: 5.78 ± 0.15

FRPEMKKHSWCLKRKNPPNERTV [N4BP2L1]
protein stability index (treatment: DMSO, c terminus: native): 3.06 ± 0.2 | protein stability index (treatment: MLN4924 1 uM, 8 h, c terminus: native): 3.04 ± 0.68

SGADTAKCGIHSMFPLHLAALNAH [ANKRD44]
protein stability index [1]: 2.07 ± 0.29 | protein stability index [2]: 2.36 ± 0.11

DALNAYVCKGLPQHEEICLGLFTL [INTS3]
protein stability index [1]: 2.81 ± 0.64 | protein stability index [2]: 2.67 ± 0.74

FNKDLVQDCGFEHLVPVIEMWADQ [CEP70]
protein stability index [1]: 2.45 ± 0.45 | protein stability index [2]: 2.65 ± 0.61

ASGSTQRQPPPPAPQHPQPGSQAL [FBXO28]
protein stability index [1]: 5.14 ± 0.27 | protein stability index [2]: 5.12 ± 0.089

NKHLTTHQGIKPYKCSWCGKSFSQ [ZNF75A]
protein stability index [1]: 2.35 ± 0.45 | protein stability index [2]: 2.06 ± 0.37

RHSFRKHLYLLRGLPGSGKTTLAR [N4BP2L1]
protein stability index [1]: 2.5 ± 0.17 | protein stability index [2]: 2.54 ± 0.37

CGYFQVVNYTQGLWEKVMPSRYAA [SLC19A2]
protein stability index [1]: 2.7 ± 0.79 | protein stability index [2]: 2.46 ± 0.41

ESSAKSKINVNEIFYDLVRQINRK [RAP1B]
protein stability index [1]: 1.92 ± 0.38 | protein stability index [2]: 1.96 ± 0.25

RSHFLWKEPATMSWLEENVHEVLQ [TCF25]
protein stability index [1]: 2.43 ± 0.78 | protein stability index [2]: 2.69 ± 0.39

LVELPASFRELLTFFCTNATIHGA [SCNN1D]
protein stability index [1]: 2.79 ± 0.38 | protein stability index [2]: 2.63 ± 0.49

GLSPEEKEQLSNDRETQEGKPPTA [ELOA2]
protein stability index [1]: 5.6 ± 0.22 | protein stability index [2]: 5.31 ± 0.46

RKADFKAGKALVISGREVFEFRPE [ZC3H15]
protein stability index [1]: 3.11 ± 0.25 | protein stability index [2]: 3.38 ± 0.41

SPRLTFQCLEDLVNHYSEVADGLC [SLA]
protein stability index [1]: 2.79 ± 0.45 | protein stability index [2]: 3.19 ± 0.54

PETAHPNLVLSEDRKSVKFVETRL [TRIM39]
protein stability index [1]: 4.04 ± 0.45 | protein stability index [2]: 4.15 ± 0.16

SRQDKPLSPAGSSQEAADTPDTRH [YJU2B]
protein stability index [1]: 5.56 ± 0.14 | protein stability index [2]: 5.46 ± 0.13

IDQWSMLGDMQTAREGAGLVVASG [KLHL12]
protein stability index [1]: 3.36 ± 0.15 | protein stability index [2]: 3.52 ± 0.051

MIAFFFIIIYLGPMVLMIIVMCVQ [CDS2]
protein stability index [1]: 3.3 ± 0.31 | protein stability index [2]: 3.12 ± 0.93

VDDLSVEWDAMGGKVQDIKAREKD [FSD1]
protein stability index [1]: 5.41 ± 0.33 | protein stability index [2]: 5.5 ± 0.43

EELLWRKVYYEVIQLIKTNKKHIH [SMG5]
protein stability index [1]: 2.8 ± 0.59 | protein stability index [2]: 2.4 ± 0.39

YHPVKIGDLFNGRYHVIRKLGWGH [SRPK2]
protein stability index [1]: 2.79 ± 0.55 | protein stability index [2]: 2.24 ± 0.22

PGEVVPSGESGLRRRGSDPASGEV [TMEM40]
protein stability index [1]: 5.52 ± 0.32 | protein stability index [2]: 5.43 ± 0.23

TTGLQVPSAVRCLQKRGSATSSSN [FSD1]
protein stability index [1]: 4.13 ± 0.12 | protein stability index [2]: 3.99 ± 0.14

SHGYDMSTFIRRYSRYLNEKAFSY [SNAP91]
protein stability index [1]: 2.17 ± 0.24 | protein stability index [2]: 2.3 ± 0.52

RGPRMCRFIRERDRAVNDYPSLYY [CDC25B]
protein stability index [1]: 2.17 ± 0.27 | protein stability index [2]: 2.12 ± 0.39

LRVISDEGGWWKAISLSTGRESYI [SLA]
protein stability index [2]: 1.88 ± 0.22

LASITETIQVHRRYWRSLRVMKVE [HDAC6]
protein stability index [1]: 2.42 ± 0.3 | protein stability index [2]: 2.31 ± 0.16

SPTSGSPRGSHSSALERLETKLHL [LURAP1L]
protein stability index [1]: 3.64 ± 0.4 | protein stability index [2]: 3.94 ± 0.36

ICCDKCSVWQHIDCMGIDRQHIPD [KMT2E]
protein stability index [1]: 2.7 ± 0.28 | protein stability index [2]: 2.87 ± 0.43

ATSATSHTRSLNSIIHQMEKFSSS [FBF1]
protein stability index [1]: 3.34 ± 0.28 | protein stability index [2]: 3.59 ± 0.39

DYIIRNTDRGNDNWLIKYDCPMDS [PI4K2A]
protein stability index [1]: 2.81 ± 0.25 | protein stability index [2]: 2.88 ± 0.12

LEEALYEYQPLQIETYGPHVPELE [MNAT1]
protein stability index [1]: 3.25 ± 0.6 | protein stability index [2]: 3.65 ± 0.47

GAGAEESELQAYIAQCQDSPTSGK [MCOLN1]
protein stability index [1]: 5.41 ± 0.14 | protein stability index [2]: 5.45 ± 0.17

FVTGNCLEISPDCSQYDRVYCGAG [PCMTD2]
protein stability index [1]: 2.43 ± 0.19 | protein stability index [2]: 2.33 ± 0.14

LEENPYDLDAWSILIREAQNQPID [CSTF3]
protein stability index [1]: 3.74 ± 0.32 | protein stability index [2]: 3.85 ± 0.31

CFLLTAMAYDQFLAICRPLTYSTR [OR3A1]
protein stability index [1]: 2.89 ± 0.35 | protein stability index [2]: 2.89 ± 0.69

AGISRSPTICMAYLMKTKQFRLKE [DUSP5]
protein stability index [1]: 2.21 ± 0.3 | protein stability index [2]: 2.13 ± 0.24

GASFTQKGNLLRHIKLHSGEKPFK [IKZF1]
protein stability index [1]: 3.77 ± 0.23 | protein stability index [2]: 3.72 ± 0.28

LEAELLQIEERHQEKKRKFLESTD [SMARCE1]
protein stability index [1]: 4.89 ± 0.69 | protein stability index [2]: 5.04 ± 0.24

EELAKKRFKDKSSEEAVREVHRLI [TPPP]
protein stability index [1]: 3.54 ± 0.24 | protein stability index [2]: 3.41 ± 0.27

LHDRGAQVIHPQEFRRWRDTGVAF [DNAAF3]
protein stability index [1]: 2.83 ± 0.2 | protein stability index [2]: 2.99 ± 0.38

PWDESGSGCLPPEPLFEAGDATLA [FOXJ1]
protein stability index [1]: 5.07 ± 0.39 | protein stability index [2]: 5.08 ± 0.23

GMQMAEDSKSLKTHQTQPGIRRAR [NET1]
protein stability index [1]: 4.78 ± 0.36 | protein stability index [2]: 4.69 ± 0.46

SEQEHFLIVPFGLLYSEVTASSLV [ADD1]
protein stability index [1]: 2.65 ± 0.57 | protein stability index [2]: 2.92 ± 0.68

MPTGPPEDRLSLKFLPSSEEDNDD [DRICH1]
protein stability index [1]: 5.47 ± 0.2 | protein stability index [2]: 5.59 ± 0.15

ENYLNRCMDQERLRRESTSQKEMD [FCHO1]
protein stability index [1]: 4.24 ± 0.28 | protein stability index [2]: 4.56 ± 0.3

GELLGEARYYLVQGLIEDCQLALQ [KCTD13]
protein stability index [1]: 2.15 ± 0.64 | protein stability index [2]: 2.3 ± 0.28

TCRNPACGPQWEMSEWSECTAKCG [ADAMTSL2]
protein stability index [1]: 3.28 ± 0.29 | protein stability index [2]: 3.93 ± 0.53

QGPQGREGLAFLVSCPEGRADCAS [PWWP2B]
protein stability index [1]: 3.77 ± 0.33 | protein stability index [2]: 3.95 ± 0.26

MELGGHWDMNSAPRLVSETAERKQ [MFSD9]
protein stability index [1]: 4.98 ± 0.11 | protein stability index [2]: 4.98 ± 0.2

KVHRARKTMPKSVVGLHAASKDPR [EHMT1]
protein stability index [1]: 4.1 ± 0.16 | protein stability index [2]: 4.08 ± 0.31

DAKARKQEIIKTTEQLIEAVNNGD [CAMK2B]
protein stability index [1]: 5.27 ± 0.29 | protein stability index [2]: 5.26 ± 0.19

GLLNDTSAPHLENSGHTIFNDPFF [KCNA4]
protein stability index [1]: 4.17 ± 0.19 | protein stability index [2]: 4.28 ± 0.28

AACIAYIRLTQYIDGQGRPRTSQS [CAMK2B]
protein stability index [1]: 2.24 ± 0.54 | protein stability index [2]: 2.48 ± 0.23

LVADLLYWKDTRTSGVVFTGLMVS [RTN2]
protein stability index [1]: 3.17 ± 0.46 | protein stability index [2]: 3.03 ± 0.4

LCDVTLMPGDTDDAFPVHRVMMAS [KLHL13]
protein stability index [1]: 3.03 ± 0.34 | protein stability index [2]: 3.2 ± 0.19

HEEERINIYCLNCEVPTCSLCKVF [TRIM55]
protein stability index [1]: 2.95 ± 0.39 | protein stability index [2]: 3.16 ± 0.32

NWGQDPGVSANASKAWHQKSHFQN [PBXIP1]
protein stability index [1]: 2.94 ± 0.5 | protein stability index [2]: 3.43 ± 0.32

KRAPGEETEKEEEEEDREEEDENG [NEUROD6]
protein stability index [1]: 5.6 ± 0.34 | protein stability index [2]: 5.69 ± 0.43

MELGPEPPHRRRLLFACSPPPASQ [CDC25A]
protein stability index [1]: 3.57 ± 0.2 | protein stability index [2]: 3.47 ± 0.17

Reference: the supplement of paper PMC10567573
